The values below come from the Immune Epitope Database (IEDB).

One may read the Kd as a measure of binding affinity in units of concentration.

For assay [1], the target named is HLA-B*35:01. The assay can be described thus: IEDB peptide-MHC binding, purified MHC/competitive/radioactivity; filed as Kd, often an IC50 or EC50 that approximates it; ≥ and ≤ were set here for values at or beyond the usual limits of such assays. The conditions noted are these: source organism: SARS coronavirus Tor2.
The target of assay [2] is HLA-B*53:01. Described as above. The following applies: source organism: SARS coronavirus Tor2.
Assay [3] deals with HLA-B*07:02. Described as above. The conditions noted are these: source organism: SARS coronavirus Tor2.
The target of assay [4] is HLA-B*54:01. Described as above. The following applies: source organism: SARS coronavirus Tor2.
Assay [5] addresses HLA-B*51:01. The assay is described as above. The following applies: source organism: SARS coronavirus Tor2.
Assay [6] has as its target HLA-A*02:01. The assay is described as above.
The target in assay [7] is HLA-A*68:02. Described as above.
Assay [8] concerns the target HLA-A*02:06. The description is as above.
Assay [9] deals with HLA-B*40:02. The assay is described as above.
Assay [10] concerns the target HLA-B*44:02. Described as above.
Assay [11] deals with HLA-B*18:01. The description is as above.
For assay [12], the target named is HLA-B*44:03. The description is as above.
Assay [13] deals with HLA-B*40:01. The description is as above.
Assay [14] deals with HLA-B*45:01. The assay is described as above.
Assay [15] deals with HLA-A*02:03. The description is as above. The conditions noted are these: source organism: Trypanosoma cruzi.
Assay [16] has as its target HLA-A*02:02. The assay is described as above. The conditions noted are these: source organism: Trypanosoma cruzi.
Assay [17] has as its target HLA-A*30:02. The assay is described as above. The conditions noted are these: source organism: SARS coronavirus Tor2.
The target of assay [18] is HLA-A*01:01. The assay is described as above. The conditions noted are these: source organism: SARS coronavirus Tor2.
The target in assay [19] is HLA-A*23:01. Described as above. The following applies: source organism: SARS coronavirus Tor2.
Assay [20] concerns the target HLA-A*29:02. The assay is described as above. The following applies: source organism: SARS coronavirus Tor2.
The target in assay [21] is HLA-A*24:02. The description is as above. The following applies: source organism: SARS coronavirus Tor2.
Assay [22] concerns the target HLA-A*26:01. Described as above. The conditions noted are these: source organism: SARS coronavirus Tor2.
In assay [23] the target is HLA-B*18:01. The assay can be described thus: IEDB peptide-MHC binding, purified MHC/competitive/fluorescence; filed as Kd, often an IC50 or EC50 that approximates it; ≥ and ≤ were set here for values at or beyond the usual limits of such assays. The conditions noted are these: source organism: Orthohantavirus tulaense.
Assay [24] concerns the target HLA-B*57:01. Described as above. The conditions noted are these: source organism: Orthohantavirus tulaense.
Assay [25] deals with HLA-A*26:01. The assay is described as above. The following applies: source organism: Orthohantavirus tulaense.
Assay [26] deals with HLA-B*51:01. The description is as above. The following applies: source organism: Orthohantavirus tulaense.
Assay [27] addresses HLA-B*27:03. Described as above. The following applies: source organism: Orthohantavirus tulaense.
Assay [28] addresses HLA-B*15:01. The assay is described as above. The following applies: source organism: Orthohantavirus tulaense.
Assay [29] deals with HLA-A*02:01. The assay can be described thus: IEDB peptide-MHC binding, purified MHC/direct/fluorescence; filed as Kd, often an IC50 or EC50 that approximates it; ≥ and ≤ were set here for values at or beyond the usual limits of such assays. The following applies: source organism: Orthohantavirus andesense.
Assay [30] deals with HLA-A*03:01. The description is as above. The following applies: source organism: Orthohantavirus tulaense.
[31] abbreviates: source organism: SARS coronavirus Tor2.
[32] abbreviates: source organism: Trypanosoma cruzi.
Setting [33] is: source organism: Mammarenavirus lassaense.
[34] abbreviates: source organism: Lymphocytic choriomeningitis virus (strain Armstrong).
[35] abbreviates: source organism: Mammarenavirus guanaritoense.

Regarding APAHVSTIGV, the dissociation constant (Kd) in assay [1] came to 10.5 µM; in assay [2], 17 µM; in [3], 0.0344 µM; in assay [4], 3.11 µM; in assay [5], 12.5 µM.
For ELRSKREQEV, the Kd in [6] (source organism: Homo sapiens) was 18.8 µM; in assay [7] (source organism: Homo sapiens), 2.53 µM; in assay [8] (source organism: Homo sapiens) it was no less than 72.5 µM.
Turning to EMRQKHSQAV, the Kd is no less than 33.9 µM in [6] (source organism: Homo sapiens), 0.512 µM in assay [7] (source organism: Homo sapiens) and no less than 72.5 µM in assay [8] (source organism: Homo sapiens).
With FEVLAVEDT, the Kd in assay [9] (setting [31]) was 1.87 µM; in assay [10] (setting [31]), no less than 47.9 µM; in assay [11] (setting [31]), 3.4 µM; in assay [12] (setting [31]), 13.5 µM; in [13] (setting [31]), 10.9 µM; in assay [14] (setting [31]) it was 11.6 µM.
Consider FLPSDFFPSA, for which the dissociation constant (Kd) in assay [6] (source organism: Hepatitis B virus) came to 0.023 µM.
For the sequence GESVKTQFNY, the Kd is 0.486 µM in assay [9] (setting [31]); 0.479 µM in assay [10] (setting [31]); no less than 20.1 µM in assay [11] (setting [31]); 0.295 µM in [12] (setting [31]); 11.6 µM in assay [13] (setting [31]); 7.63 µM in assay [14] (setting [31]).
Take GLLPLFLLLG: the Kd was 0.000154 µM in assay [6] (setting [32]); 7.59 µM in assay [7] (setting [32]); 0.138 µM in assay [15]; 0.0291 µM in [16]; 0.0183 µM in assay [8] (setting [32]).
In the case of KEAYCQEFSL, the Kd was 0.00968 µM in [9] (setting [33]); 4.18 µM in [10] (setting [33]); no less than 36.9 µM in assay [11] (setting [33]); 16.1 µM in assay [12] (setting [33]); 0.0883 µM in assay [13] (setting [33]); 5.69 µM in [14] (setting [33]).
With LDVLCLSSL, the Kd in assay [9] (setting [34]) was 0.0434 µM; in assay [10] (setting [34]), 7.76 µM; in [11] (setting [34]), no less than 22.9 µM; in assay [12] (setting [34]), 7.54 µM; in [13] (setting [34]), 6.12 µM; in assay [14] (setting [34]), 8.17 µM.
LTDLGLIYTA: the dissociation constant Kd in assay [6] (source organism: Lassa virus GA391) came to 0.893 µM.
Consider LTVILGVLL, for which the Kd in assay [6] (source organism: Homo sapiens) was 2.63 µM.
Regarding LVVDFSQFSR, the Kd in assay [6] (source organism: Hepatitis B virus subtype adw2) is no less than 35 µM.
Regarding MEAQFLYLY, the Kd in assay [17] came out at 0.0117 µM; in assay [9] (setting [31]) it was 2.22 µM; in assay [10] (setting [31]) it was 0.00215 µM; in assay [18], 1.57 µM; in assay [19], 16.8 µM; in [11] (setting [31]) it was 0.000292 µM. Besides, the Kd in assay [12] (setting [31]) is 0.000933 µM; in assay [20], 0.00598 µM; in assay [21], 9.6 µM; in assay [22], 1.93 µM; in [13] (setting [31]) it was 1.85 µM; in assay [14] (setting [31]), 0.0122 µM.
On to METDFLELAM, for which the Kd in [9] (setting [31]) came out at 0.289 µM; in assay [10] (setting [31]), 0.0243 µM; in assay [11] (setting [31]), 0.0376 µM; in assay [12] (setting [31]), 0.0109 µM; in assay [13] (setting [31]), 0.0156 µM; in assay [14] (setting [31]), 0.123 µM.
As for PDTTYLGPL, the equilibrium dissociation constant (Kd) in assay [9] (setting [34]) is no less than 77.2 µM; in assay [10] (setting [34]) it was no less than 77.9 µM; in [11] (setting [34]), no less than 75.3 µM; in [12] (setting [34]) it was no less than 78.1 µM; in [13] (setting [34]), no less than 76.1 µM; in assay [14] (setting [34]) it was no less than 21.9 µM.
On to QELLIQQWI, for which the dissociation constant (Kd) is 0.0617 µM in assay [9] (setting [31]); 0.0912 µM in assay [10] (setting [31]); 8.66 µM in assay [11] (setting [31]); 13.5 µM in assay [12] (setting [31]); 0.186 µM in assay [13] (setting [31]); 0.316 µM in [14] (setting [31]).
In the case of REAVESCPLM, the Kd in [9] (setting [34]) was found to be 0.00986 µM; in [10] (setting [34]) it was 0.525 µM; in assay [11] (setting [34]), 3.04 µM; in assay [12] (setting [34]), 2.18 µM; in assay [13] (setting [34]) it was 0.105 µM; in assay [14] (setting [34]), 8.14 µM.
Consider REGVFVFNG, for which the Kd in assay [9] (setting [31]) was 0.222 µM; in assay [10] (setting [31]), 4.77 µM; in assay [11] (setting [31]), no less than 39 µM; in assay [12] (setting [31]), 0.298 µM; in assay [13] (setting [31]), 1.55 µM; in [14] (setting [31]) it was 0.136 µM.
Turning to RELNGGAVT, the Kd was 0.0219 µM in assay [9] (setting [31]); 9.11 µM in [10] (setting [31]); no less than 53.3 µM in assay [11] (setting [31]); 7.29 µM in assay [12] (setting [31]); 0.212 µM in [13] (setting [31]); 0.0439 µM in [14] (setting [31]).
For SDEVARDLSL, the Kd in assay [9] (setting [31]) was 10.6 µM; in assay [10] (setting [31]), 5.65 µM; in assay [11] (setting [31]), no less than 43.2 µM; in assay [12] (setting [31]) it was 3.87 µM; in assay [13] (setting [31]), 0.353 µM; in [14] (setting [31]) it was 0.262 µM.
For the sequence SLFGAAVSL, the Kd is no less than 20 µM in assay [23]; no less than 20 µM in assay [24]; no less than 20 µM in assay [25]; no less than 20 µM in assay [26]; no less than 20 µM in assay [27]; 0.0497 µM in assay [28]. In addition, the Kd was no more than 0.0001 µM in [29] and no less than 20 µM in assay [30].
SLHVGTQCA: the Kd in [6] (source organism: Homo sapiens) was 1.44 µM.
As for SLRVLAAGL, in [6] (source organism: Homo sapiens), the Kd is no less than 50 µM.
Turning to TEQFINYCL, the Kd was found to be 0.0323 µM in assay [9] (setting [35]); 0.1 µM in assay [10] (setting [35]); 0.399 µM in assay [11] (setting [35]); 0.416 µM in assay [12] (setting [35]); 0.306 µM in assay [13] (setting [35]); 0.129 µM in assay [14] (setting [35]).
In the case of WEILKFLITG, the Kd in assay [9] (setting [31]) is 0.542 µM; in [10] (setting [31]), 8.58 µM; in assay [11] (setting [31]), no less than 41.6 µM; in assay [12] (setting [31]) it was 2.93 µM; in assay [13] (setting [31]), 19 µM; in assay [14] (setting [31]), 1.17 µM.
